Measured values as given in PMC5915732, “Human Cytomegalovirus Encodes a Novel FLT3 Receptor Ligand Necessary for Hematopoietic Cell Differentiation and Viral Reactivation” (mBio, 2018).

T1: human Fms-like tyrosine kinase 3 receptor (Flt-3R), GFP-tagged, on stable HEK-293 cells (HEK-293-hFlt-3R) (human, UniProt P36888 27-993)
T1 construct: human fms-tyrosine kinase 3 (FLT3), GFP-tagged, from plasmid OriGene RG211459, expressed on HEK-293 cells; In the functional rows from RS4;11 cells the receptor was the endogenous human Flt-3R of those cells, not this construct; also called human Flt-3 receptor; source: HEK-293, stably transfected (OriGene plasmid RG211459, G418 selection), on cells
T1 sequence (looked up): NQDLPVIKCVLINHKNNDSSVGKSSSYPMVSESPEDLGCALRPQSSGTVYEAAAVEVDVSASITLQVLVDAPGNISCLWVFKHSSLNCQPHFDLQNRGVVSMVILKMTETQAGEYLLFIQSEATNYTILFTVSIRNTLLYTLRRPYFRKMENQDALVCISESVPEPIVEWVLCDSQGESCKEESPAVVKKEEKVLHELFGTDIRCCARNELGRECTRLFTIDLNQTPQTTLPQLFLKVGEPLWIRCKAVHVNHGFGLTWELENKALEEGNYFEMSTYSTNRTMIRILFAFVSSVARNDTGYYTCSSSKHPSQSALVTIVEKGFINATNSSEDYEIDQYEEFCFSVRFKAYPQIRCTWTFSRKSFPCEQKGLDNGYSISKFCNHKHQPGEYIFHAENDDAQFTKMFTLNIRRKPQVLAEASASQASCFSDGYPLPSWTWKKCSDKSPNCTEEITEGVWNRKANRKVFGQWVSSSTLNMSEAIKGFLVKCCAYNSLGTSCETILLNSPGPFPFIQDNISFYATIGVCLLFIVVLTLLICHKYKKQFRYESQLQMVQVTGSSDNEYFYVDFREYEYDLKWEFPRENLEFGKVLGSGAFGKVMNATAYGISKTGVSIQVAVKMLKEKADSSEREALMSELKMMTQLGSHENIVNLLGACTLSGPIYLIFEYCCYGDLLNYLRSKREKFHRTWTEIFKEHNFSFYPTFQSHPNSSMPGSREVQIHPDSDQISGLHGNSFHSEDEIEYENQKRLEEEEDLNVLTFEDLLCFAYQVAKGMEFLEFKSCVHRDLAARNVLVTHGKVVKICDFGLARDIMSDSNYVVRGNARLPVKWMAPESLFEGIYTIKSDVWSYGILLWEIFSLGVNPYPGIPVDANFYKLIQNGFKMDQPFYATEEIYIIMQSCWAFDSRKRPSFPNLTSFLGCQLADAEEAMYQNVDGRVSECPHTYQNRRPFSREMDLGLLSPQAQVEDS

B1: recombinant human Flt-3 ligand (Flt-3L) (ligand, UniProt P49771 27-184, looked up)
chain: TQDCSFQHSPISSDFAVKIRELSDYLLQDYPVTVASNLQDEELCGGLWRLVLAQRWMERLKTVAGSKMQGLLERVNTEIHFVTKCAFQPPPSCLRFVQTNISRLLQETSEQLVALKPWITRQNFSRCLELQCQPDSSTLPPPWSPRPLEATAPTAPQP
notes: recombinant human Flt-3 ligand, soluble; No catalogue number is printed; also called soluble Flt-3 ligand; 100XFlt-3L; source: bought: R&S Systems (so in the source)

Legend:
[1] = biological target: human Fms-like tyrosine kinase 3 receptor (Flt-3R), GFP-tagged, on stable HEK-293 cells (HEK-293-hFlt-3R) (human) (UniProt P36888); test: ELISA; competition on cells: HEK-293-hFlt-3R cells preincubated 1 h with 100-fold excess of nonbiotinylated pUL7 (5 ug/ml), Flt-3L (5 ug/ml), anti-Flt-3R antibody (1:100) or control antibody, washed with MEM, then incubated with 50 ng/ml biotinylated pUL7; HRP-streptavidin, absorbance at 450 nm
[2] = biological target: human Fms-like tyrosine kinase 3 receptor (Flt-3R), GFP-tagged, on stable HEK-293 cells (HEK-293-hFlt-3R) (human) (UniProt P36888)
[3] = biological target: T1, human Fms-like tyrosine kinase 3 …; test: ELISA; competition on cells: HEK-293-hFlt-3R cells preincubated 1 h with 100-fold excess of nonbiotinylated pUL7 (5 ug/ml), Flt-3L (5 ug/ml), anti-Flt-3R antibody (1:100) or control antibody, washed with MEM, then incubated with 50 ng/ml biotinylated pUL7; HRP-streptavidin, absorbance at 450 nm; conditions: one partner purified

Molecule	percent reduction in binding of biotinylated pUL7 (100-fold excess of competitor) [1] [%]	phosphorylation of Akt (immunoblot) in serum-starved RS4;11 cells stimulated with 50 ng/ml pUL7, within 10 min, fold compared to the Fc control [2] [fold]	phosphorylation of ERK1/2 (immunoblot) in serum-starved RS4;11 cells stimulated with 50 ng/ml pUL7, within 10 min, fold compared to the Fc control [2] [fold]	phosphorylation of Flt-3R (immunoblot) in serum-starved RS4;11 cells stimulated with 50 ng/ml pUL7, within 10 min, fold compared to the Fc control [2] [fold]	percent reduction in binding of biotinylated pUL7 (100-fold excess of competitor) [3] [%]
purified UL7 (pUL7), recombinant UL7 protein from HCMV TB40E, nonbiotinylated (Fc fusion)	62	8	9	14	
B1					63
